Test results reported in patent publication EP4606822A1 (MULTITUDE THERAPEUTICS INC., dated 2024).

Assays:
[1] = biological target: T1, HER3 on human tumor cell lines (human, UniProt P21860 20-1342); assay: flow cytometry on SW620 cells
T1 construct: whole, on cells; The immunogen was the human HER3 extracellular domain (NM_001982.4, positions 20-643), but the flow cytometry assays used endogenous HER3 on cells; also called HER3 protein

[2] = biological target: T1, HER3 on human tumor cell lines; assay: flow cytometry on MDA-MB-453 cells

T1 sequence (P21860 20-1342): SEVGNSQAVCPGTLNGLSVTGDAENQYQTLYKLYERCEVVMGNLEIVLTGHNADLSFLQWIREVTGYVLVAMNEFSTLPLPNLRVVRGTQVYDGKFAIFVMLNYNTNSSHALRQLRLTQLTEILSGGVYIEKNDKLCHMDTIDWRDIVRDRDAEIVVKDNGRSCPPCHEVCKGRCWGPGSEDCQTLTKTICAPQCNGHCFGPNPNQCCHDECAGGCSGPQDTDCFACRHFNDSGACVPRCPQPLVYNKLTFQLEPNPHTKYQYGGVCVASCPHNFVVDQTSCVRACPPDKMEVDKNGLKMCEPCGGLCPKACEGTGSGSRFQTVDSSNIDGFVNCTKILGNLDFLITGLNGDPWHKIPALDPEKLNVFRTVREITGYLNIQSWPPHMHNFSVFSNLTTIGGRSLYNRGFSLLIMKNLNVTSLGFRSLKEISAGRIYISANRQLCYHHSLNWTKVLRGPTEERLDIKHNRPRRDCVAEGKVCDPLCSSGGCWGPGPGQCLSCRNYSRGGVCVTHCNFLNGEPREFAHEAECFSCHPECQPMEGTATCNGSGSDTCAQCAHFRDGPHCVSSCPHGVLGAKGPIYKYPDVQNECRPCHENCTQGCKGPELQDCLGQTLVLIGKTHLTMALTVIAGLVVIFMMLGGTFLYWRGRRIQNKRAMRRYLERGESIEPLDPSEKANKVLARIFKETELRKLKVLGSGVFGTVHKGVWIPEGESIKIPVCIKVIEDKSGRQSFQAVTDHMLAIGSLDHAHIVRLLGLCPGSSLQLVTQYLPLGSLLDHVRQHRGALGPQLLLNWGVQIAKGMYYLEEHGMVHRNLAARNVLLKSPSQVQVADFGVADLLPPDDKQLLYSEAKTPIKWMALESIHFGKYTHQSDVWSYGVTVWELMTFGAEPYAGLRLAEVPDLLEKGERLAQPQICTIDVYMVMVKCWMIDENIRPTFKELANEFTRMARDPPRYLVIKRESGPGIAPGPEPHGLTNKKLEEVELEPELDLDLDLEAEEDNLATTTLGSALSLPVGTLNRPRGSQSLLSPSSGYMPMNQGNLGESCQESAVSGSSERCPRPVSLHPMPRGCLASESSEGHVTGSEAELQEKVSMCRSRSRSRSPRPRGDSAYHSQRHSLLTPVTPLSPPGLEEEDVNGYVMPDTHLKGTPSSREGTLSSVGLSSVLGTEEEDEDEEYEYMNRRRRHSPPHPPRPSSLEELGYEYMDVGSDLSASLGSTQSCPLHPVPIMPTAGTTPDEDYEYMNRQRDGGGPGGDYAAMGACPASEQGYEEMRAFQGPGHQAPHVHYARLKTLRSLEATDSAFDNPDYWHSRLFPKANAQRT

EC50 [1] [nM]	EC50 [2] [nM]	Binder
1200		humanized 4O3 antibody L2H4 (antibody, human IgG1, kappa, V domains shown, also called Hu4O3) VH: QVQLQESGPGLVKPSQTLSLTCTVSGISITTGNYRWSWIRQHPGKKLEWIGNIYYSGAITYNPSLKSRVTISRDTSKNQFFLKLSSVTAADTAVYYCARDGGTVVEGWYFDVWGKGTTVTVSS VL: EIVLTQSPDTQSVTPKEKVTITCRASQSISDYLHWYQQKPDQSPKLLIKYASQSISGVPSRFSGSGSGTDFTLTINSLEAEDVGLYYCQSGRSFPLTFGGGTKVEIKR
21.9		humanized 4O3 antibody L4H7 (antibody, human IgG1, kappa, V domains shown, also called Hu4O3) VH: QVQLQESGPGLVKPSQTLSLTCTVSGISITTGNYRWSWIRQPPGKGLEWIGYIYYSGAITYNPSLKSRVTISRDTSKNQFSLQLRSVTAADTAVYYCARDGGTVVEGWYFDVWGQGTTVTVSS VL: EIVLTQSPDTQSVTPKEKVTITCRASQSISDYLHWYQQKPGQAPKLLIKYASQSISGVPSRFSGSGSGTDFTLTINSLEAEDFGLYYCQSGRSFPLTFGGGTKVEIKR
194	71.5	humanized 4O3 antibody L1H4 (antibody, human IgG1, kappa, also called Hu4O3) heavy: not shown light: EIVLTQSPDTQSVTPKEKVTITCRASQSISDYLHWYQQKPDQSPKLLIKYASQSISGVPSRFSGSGSGTDFTLTINSLEAEDAATYYCQSGRSFPLTFGGGTKVEIKRTVAAPSVFIFPPSDEQLKSGTASVVCLLNNFYPREAKVQWKVDNALQSGNSQESVTEQDSKDSTYSLSSTLTLSKADYEKHKVYACEVTHQGLSSPVTKSFNRGEC
147	122	humanized 4O3 antibody L1H5 (antibody, human IgG1, kappa, also called Hu4O3 (L1H5); Hu4O3) heavy: not shown light: EIVLTQSPDTQSVTPKEKVTITCRASQSISDYLHWYQQKPDQSPKLLIKYASQSISGVPSRFSGSGSGTDFTLTINSLEAEDAATYYCQSGRSFPLTFGGGTKVEIKRTVAAPSVFIFPPSDEQLKSGTASVVCLLNNFYPREAKVQWKVDNALQSGNSQESVTEQDSKDSTYSLSSTLTLSKADYEKHKVYACEVTHQGLSSPVTKSFNRGEC
90		humanized 4O3 antibody L4H4 (antibody, human IgG1, kappa, V domains shown, also called Hu4O3) VH: QVQLQESGPGLVKPSQTLSLTCTVSGISITTGNYRWSWIRQHPGKKLEWIGNIYYSGAITYNPSLKSRVTISRDTSKNQFFLKLSSVTAADTAVYYCARDGGTVVEGWYFDVWGKGTTVTVSS VL: EIVLTQSPDTQSVTPKEKVTITCRASQSISDYLHWYQQKPGQAPKLLIKYASQSISGVPSRFSGSGSGTDFTLTINSLEAEDFGLYYCQSGRSFPLTFGGGTKVEIKR
